Laboratory results taken from patent US20230140200A1, “COMPOSITIONS AND METHODS FOR DETECTING CELLS UNDERGOING FERROPTOSIS USING AN ANTIBODY” (THE TRUSTEES OF COLUMBIA UNIVERSITY IN THE CITY OF NEW YORK, priority 2020, published 2023).

Assays:
[1] = tested on: HT-1080 cells; experiment: Immunofluorescence staining of treated cells, quantification of membrane intensity; assay type: cell-based, human
[2] = target: T1, transferrin receptor protein 1 (Homo sapiens, UniProt P02786); experiment: Immunoprecipitation-mass spectrometry antigen identification; assay type: binding; settings: HT-1080 cell lysate, IP-MS
T1 construct: endogenous in cells; host or cells: HT-1080
Description: HT-1080 cells were seeded in DMEM (Corning 10-013-CM) and 10% Hi-FBS with 1% penicillin and streptomycin (PS) with 1% MEM Non-Essential Amino Acids Solution (100×) (Thermo Fisher Scientific 11140-076) 16 h prior to use. DMSO or 1 μM of RSL3 was added and incubated for 4 h. Following treatment, the medium was aspirated from each dish and cells were washed twice with PBS. Cells were lysed with 70 μl lysis buffer (RIPA buffer from ThermoFisher, cat. 89900, 1 mM EDTA, 1 mM PMSF, 1× Halt™ protease inhibitor cocktail from ThermoFisher, cat. 78430 and 1× Halt™ phosphatase inhibitor cocktail from ThermoFisher, cat. 78426). Unlysed cells and debris were pelleted for 15 min at 16,000×g at 4° C. The samples were incubated with 10 μg of 3F3 FMA overnight at 4° C. with shaking. The next day, Thermo Scientific Pierce Protein AG Magnetic Beads (Thermo Fisher Scientific 88802) were washed with TBS with 0.05% Tween 20 (wash buffer) and then were incubated with sample/antibody mixture for 1 h with mixing. The beads were collected with a magnetic stand and then washed with wash buffer for three times. The beads were used for mass spectrometry.
Trypsin digestion was performed overnight at 37° C. […] CID fragmentation was applied with 35% collision energy and resulting fragments were detected using the rapid scan rate in the ion trap. […]
Raw mass spectrometric data were analyzed using MaxQuant v. […]

[3] = tested on: SK-BR-3 cells; experiment: Immunofluorescence in SK-BR-3 cells; assay type: cell-based, human; settings: 1 μM RSL3, 4 h
[4] = tested on: Huh-7 cells; experiment: Immunofluorescence in Huh-7 cells; assay type: cell-based; settings: 1 μM RSL3, 4 h
[5] = target: T2, mouse TfR1 (Mus musculus, UniProt Q62351); experiment: Staining of mouse glioblastoma paraffin-embedded tissue; settings: paraffin-embedded GBM tissue
T2 construct: We evaluated 3F3-FMA staining in mouse glioblastoma (GBM) paraffin-embedded tissue samples; from tissue; host or cells: mouse glioblastoma (murine glioma model, c57/B6 mice), paraffin-embedded brain sections
Description: All procedures were performed according to the Columbia University Medical Center Institutional Animal Care and Use Committee. Murine glioma cell lines were created from tumor bearing mice. These tumors were generated by injection of a PDGF-IRES-Cre retrovirus into the subcortical white matter of mice with floxed PTEN and/or p53 (Sonabend et al., 2013). After mice reached end stage, the tumors were dissociated and primary cell cultures were created. These cells harbored the specific mutations of the original tumors, and could be re-injected to form gliomas in c57/B6 mice with high fidelity. Briefly, mice between the ages of 6-8 weeks received 50,000 murine glioma cells through stereotactic injection after being anesthetized with a ketamine/xylazine cocktail (87.5 mg/12.5 mg w/w). After cessation of toe-pinch reflex, the scalp was shaved and cleaned with serial use of betadine and 70% ethanol swabs. An incision was made and the skull was exposed. A burr hole was created, 2 mm anterior, 2 mm lateral and 2 mm deep to the right of the bregma. The cells were injected into the subcortical white matter over a period of 3 minutes (0.333 μL/min). Once the injection ceased, the needle was left in place for 1 minute before being slowly withdrawn. After tumor developed, brains were harvested and fixed in 4% paraformaldehyde and embedded in paraffin. 5 micron sections were made for staining.

T1 sequence (P02786 whole entry): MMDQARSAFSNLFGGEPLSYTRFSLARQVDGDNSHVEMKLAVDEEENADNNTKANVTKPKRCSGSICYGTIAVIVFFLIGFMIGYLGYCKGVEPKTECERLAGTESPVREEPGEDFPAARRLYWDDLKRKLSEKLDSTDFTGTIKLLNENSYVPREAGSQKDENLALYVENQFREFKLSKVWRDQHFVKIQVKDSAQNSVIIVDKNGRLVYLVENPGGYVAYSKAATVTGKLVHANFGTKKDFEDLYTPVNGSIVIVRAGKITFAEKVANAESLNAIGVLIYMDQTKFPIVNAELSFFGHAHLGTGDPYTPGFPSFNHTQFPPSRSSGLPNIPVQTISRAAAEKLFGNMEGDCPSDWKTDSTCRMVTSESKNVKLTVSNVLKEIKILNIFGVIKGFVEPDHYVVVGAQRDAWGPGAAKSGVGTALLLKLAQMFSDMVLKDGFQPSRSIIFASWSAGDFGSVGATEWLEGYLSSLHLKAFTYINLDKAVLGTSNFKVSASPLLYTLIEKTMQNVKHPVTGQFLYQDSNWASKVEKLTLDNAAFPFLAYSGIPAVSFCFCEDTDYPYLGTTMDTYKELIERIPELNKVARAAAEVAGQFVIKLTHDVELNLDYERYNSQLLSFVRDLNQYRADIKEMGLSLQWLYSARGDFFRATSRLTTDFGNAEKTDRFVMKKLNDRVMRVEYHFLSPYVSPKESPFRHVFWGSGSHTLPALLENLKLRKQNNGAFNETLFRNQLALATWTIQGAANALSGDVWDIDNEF
T2 sequence (Q62351 whole entry): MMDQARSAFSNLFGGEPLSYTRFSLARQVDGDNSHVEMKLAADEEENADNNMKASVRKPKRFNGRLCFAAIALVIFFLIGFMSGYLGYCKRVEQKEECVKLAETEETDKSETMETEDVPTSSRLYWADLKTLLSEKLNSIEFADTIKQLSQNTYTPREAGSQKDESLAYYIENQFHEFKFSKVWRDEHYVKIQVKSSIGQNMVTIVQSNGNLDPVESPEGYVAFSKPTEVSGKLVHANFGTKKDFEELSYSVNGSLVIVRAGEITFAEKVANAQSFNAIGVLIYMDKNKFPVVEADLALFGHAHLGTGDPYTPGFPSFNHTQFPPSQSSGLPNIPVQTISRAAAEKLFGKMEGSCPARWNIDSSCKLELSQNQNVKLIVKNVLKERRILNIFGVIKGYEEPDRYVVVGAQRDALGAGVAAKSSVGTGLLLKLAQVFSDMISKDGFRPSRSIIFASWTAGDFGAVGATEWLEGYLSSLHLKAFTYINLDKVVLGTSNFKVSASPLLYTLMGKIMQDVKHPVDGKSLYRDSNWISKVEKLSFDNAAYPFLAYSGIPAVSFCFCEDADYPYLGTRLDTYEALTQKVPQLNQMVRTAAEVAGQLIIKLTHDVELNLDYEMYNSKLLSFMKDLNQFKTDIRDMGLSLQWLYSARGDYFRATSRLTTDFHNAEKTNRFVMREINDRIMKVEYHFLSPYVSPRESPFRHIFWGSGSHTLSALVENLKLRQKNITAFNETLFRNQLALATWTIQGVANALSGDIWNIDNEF

B1: 3F3-FMA: Murine monoclonal IgG1 raised against ferroptotic membrane fractions; antigen is transferrin receptor protein 1 (TfR1) (antibody, V domains shown)
VH: EVLLQQSGTELVRPGALVKLSCKASGFNIQDLYIHWVKQRPEQGLEWIGWIDPETDNTIYDPKFQGKASITADTSSNTAYLQLSSLTSEDTAMYYCSTGLLQWYFDVWGAGTAVTVSS
VL: DIVMTQSPSSLAMSIGQKVTMRCKSSQSLLNSYNQKNCLAWYQQKPGQSPKLLLYFVSTRESGVPDRFIGSGSGTDFTLTISSVQAEDLADYFCQQHYSTPLTFGAGTKLELK
co-localization with GM130 (Golgi marker) ([1]; 1 μM RSL3, 4 h): located in the Golgi
co-localization with Tom20 (mitochondria) and PDI (ER) markers ([1]; 1 μM RSL3, 4 h): not visible in mitochondria or the ER
antibody staining / membrane intensity in RSL3-induced ferroptosis ([1]; 1 μM RSL3, 4 h, vs DMSO): stained cell boundaries and the inside puncta became brighter
antibody staining on cell surface in STS-induced apoptosis ([1]; 1 μM STS, 6 h): wasn't detected
antibody membrane intensity in camptothecin-induced apoptosis ([1]; 2 μM camptothecin, 24 h): no significant increase
antibody membrane intensities in H2O2-treated cells ([1]; 1 mM H2O2, 4 h): didn't observe increased membrane intensities
amino acid coverage of TfR1 [2]: 53%
confidence of identification of transferrin receptor protein 1 as target antigen [2]: 63%
3F3-FMA staining upon ferroptosis induction [3]: concentrated at the cell boundaries and became brighter
3F3-FMA staining upon ferroptosis induction [4]: concentrated at the cell boundaries and became brighter
recognition of TfR1 in tumor samples [5]: able to recognize mouse TfR1 protein
